Assay results from PMC7201923.

Biological target: KPNA2 (UniProt P52292)
Test: anti-FLAG co-IP, immunoblot
Conditions: sites S97

IRF3 (from UniProt Q14653)
binding against the reference: stronger
